Target: cell surface TrkA on the human erythroleukemic cell line TF-1 (human), P04629
Test: cell-based or functional assay

cell surface TrkA on the human erythroleukemic cell line TF-1 (human), P04629, sequence (P04629 33-796): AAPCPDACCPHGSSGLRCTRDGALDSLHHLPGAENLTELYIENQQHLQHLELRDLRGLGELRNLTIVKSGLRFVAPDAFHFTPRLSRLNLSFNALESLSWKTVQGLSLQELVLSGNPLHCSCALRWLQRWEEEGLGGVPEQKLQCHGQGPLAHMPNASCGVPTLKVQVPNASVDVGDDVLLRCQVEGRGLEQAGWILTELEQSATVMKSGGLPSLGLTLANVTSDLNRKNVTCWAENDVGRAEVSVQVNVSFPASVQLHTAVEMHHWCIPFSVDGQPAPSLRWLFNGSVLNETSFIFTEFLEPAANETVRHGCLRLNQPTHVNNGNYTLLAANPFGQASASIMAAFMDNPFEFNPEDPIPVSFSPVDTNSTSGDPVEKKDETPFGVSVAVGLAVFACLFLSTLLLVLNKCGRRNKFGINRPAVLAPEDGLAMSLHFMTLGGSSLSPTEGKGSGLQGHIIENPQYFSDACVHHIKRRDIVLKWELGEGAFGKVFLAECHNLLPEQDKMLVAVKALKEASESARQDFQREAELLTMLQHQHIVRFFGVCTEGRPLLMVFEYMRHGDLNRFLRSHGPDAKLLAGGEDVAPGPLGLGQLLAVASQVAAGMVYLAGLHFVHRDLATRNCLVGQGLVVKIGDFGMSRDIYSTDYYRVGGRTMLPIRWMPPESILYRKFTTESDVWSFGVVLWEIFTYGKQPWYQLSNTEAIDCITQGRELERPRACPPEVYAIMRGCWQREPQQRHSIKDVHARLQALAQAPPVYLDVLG

B1: MNAC13 mouse antibody (antibody, mouse IgG1, kappa)
heavy: EVKLVESGGGLVQPGGSLKLSCAASGFTFSTYTMSWARQTPEKRLEWVAYISKGGGSTYYPDTVKGRFTISRDNAKNTLYLQMSSLKSEDTALYYCARGAMYGNDFFYPMDYWGQGTSVTVSSKTTPPSVYPLAPGSAAQTNSMVTLGCLVKGYFPEPVTVTWNSGSLSSGVHTFPAVLESDLYTLSSSVTVPSSPRPSETVTCNVAHPASSTKVDKKIVPRDCGCKPCICTVPEVSSVFIFPPKPKDVLTITLTPKVTCVVVDISKDDPEVQFSWFVDDVEVHTAQTQPREEQFNSTFRSVSELPIMHQDWLNGKEFKCRVNSAAFPAPIEKTISKTKGRPKAPQVYTIPPPKEQMAKDKVSLTCMITDFFPEDITVEWQWNGQPAENYKNTQPIMNTNGSYFVYSKLNVQKSNWEAGNTFTCSVLHEGLHNHHTEKSLSHSPGK
light: QIVLTQSPAIMSASLGEEITLTCSASSSVSYMHWYQQKSGTSPKLLIYTTSNLASGVPSRFSGSGSGTFYSLTISSVEAEDAADYYCHQWSSYPWTFGGGTKLEIKADAAPTVSIFPPSSEQLTSGGASVVCFLNNFYPKDINVKWKIDGSERQNGVLNSWTDQDSKDSTYSMSSTLTLTKDEYERHNSYTCEATHKTSTSPIVKSFNRNEC
Work on B1 yielded a TF-1 cell proliferation assay IC50 (NGF-induced) of 0.23 µg/mL.

From patent publication US20170218087A1
